Each sequence was assayed on K4 kissing-loop RNA reporter (assay: apparent KD of K4 kissing-loop reporter; higher = weaker reporter binding). Details: Eterna round: R107; input ligand: none.
Experimental: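 RNA-MaP round R107: designed RNA switches with theophylline, tryptophan, arginine or FMN aptamers are transcribed on-chip within common flanks. They are titrated with a labelled K4 kissing-loop RNA reporter in RNA-MaP buffer (100 mM Tris pH 7.5, 80 mM KCl, 4 mM MgCl2), without ligand or with the indicated ligand. Median apparent KD per design.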
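Further: bound reporter read as fluorescence of individual clusters on recovered sequencing chips by microscopy, with normalized cluster intensities fitted with a binding model.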

Sequence	apparent KD of K4 kissing-loop reporter [nM]
AAACAUCACUGGGAGUGAUGUUCUCAGUGACGAGGACCGGUACGGCCGCCACUCGCGAGAGAUAUAAAUAAGUAAUGACAUCAUU [Excl Tryptophan A V1]	360
AUGUAUGAAUUAGGAUAUCGUGAGCUUUGCAUAUAUAUGAUAAAUGGAUAUGUCGUAGUGAUGUUACGAGAAGGAGUGUGGAGUA [KL-XFMN-B3]	43.9
GCCAGUGAUGUUGGCGAACCAACGCAUGCAGAGGAUAUUCGUUCUGGAAGAAGGCUGCAGCGUUAUCAAACGCAGUGAUGUUGCG [Same State FMN A GF 26]	150
AGCGUCUGAAGAGGAUAUGACCAGUGAUGUUGGUUACUACCUCAAAUUAGUGUCGCGCCAAAAUCGUCAGAAGGCUUCGGCGCGC [Ussoes]	98.6
UGGAUAUAGUGAUGUUAUAUAGAGAUGGAUACCAGCGAAGAGAAUUGCCCUUGGCAGCCGAAAGCAGUAUCAUUAGAGAAGAAUG [#19 K4 Theophylline A Exclusion]	271
GCAGACACGCAGUGAUGUUGCGAAACGGAAGGAGCGCGUGAAAACGCAGGUAGGUCGCCGACACAUUAAUUAUAAUUUUGUUUGC [Arginine A K4 15]	270
ACUACGAAGACGGCCGCCACUGAUAUUCGUAGAUCCAUCAUUGCAUGAGUGAUGUUCAUGUAUAUCAGGACCGGGUCAAGAUGGU [KL-XTryp-B18 #analogue]	305
CUGCCGUGCCAUGGGCCAGUGAUGUUGGAACGAGGACCGGUACGGCCGCCACUCGCUUAGCGUCAAAGGCGUCCCGAAUAGAAAG [theeternabot_exclusion_KL_Trp_A_14]	340
CGCAGUGAUGUUGCGAAUAUAAUAACGGAAGGAGCGCGUGAAAACGCAGGUAGGUCGCCGUUUGGUAUGAUGGAAACAUCGUACC [Arginine A K4 11]	132
UGCACGGGCUCGGCCGCCACUCCCGCGGGUCGAAAGGUCCGCUACUGAGUGAUGUUCGGUUGGAGGAGGACCGGGAGCCCGUGCA [#2 Exclusion - Tryptophan B Attempt #24 (HarryS)]	108
AAAUAGAUCAGUCAUCCAGUGAUGUUGGAAGGAGCGUGCGAAAGCACAGGUAGGUCGCCAAAAUAAAAGUGGCUGAUCAAAAUAA	302
AAGUGAUGUUGUAGUGAUGUUGUGAUGUUGCAGGAUAUAUAGUGAUGUAGAAGGGUAUGUGCAGUGUUGUUGUUUGAGUGUUCAU [dttyumullin]	73.7
CGAGCGGAGUGAUGUUCCGUGCCAGCAGAUACCAGAUUGAAAGAGAUCCCUUGGCAGCUGCGUCACACCCUUACGUGAUAGGACC [theeternabot_sameState_KL_Theo_A_32]	239
AUUAAUUUCAGAGGAUAUCGUAAUUUUAUUUAAUUUAUUCAUUUGUGCAGUGAUGUUGCUAAUAUUCGAGAAGGCUGAUUUAUAA [whbob_Ex_FMNB__2th223]	70.8
UAUUGCCACAGAGUGAUGUUCUGGCCGGAUACCAGCAUGCAAUUAUGCCCUUGGCAGCCGGAUGCGCGUCCAGCCACCGGGCCUG [theeternabot_exclusion_KL_Theo_A_29]	1310
GGGAGUAGUGCGGCCGCCACUGAGAAAGAAGAAGAAUAUAGUGAUGUUAUAUAGGAAUUAAAGAACAGGACCGGGCAUUAGAUUU [SSTRyptB.O]	219
CAUAGGAAACUAUGUUCCUCUCUUACUGAAGGAGCGCGUGAAAACGCAGGUAGGUCGCAGGAUUUGAGAGUGAUGUUCUCAUUAA [Ex Arginine A K4 15]	254
UGAUAGGACAGAAGGAGCGGUAGUGAUGUUACCAAAAGGCUAAGGUGUCAAAAGACACCCUACCAGGUAGGUCGCUGUCCUAUCU	137
UGUACCGAGUCAGGAUAUGGCGUCGAAAGACGAAUCGUAGUGAUGUUACGGAUCUGCGAAAGCAGUCCAGAAGGGACUUGGUACU [FmnBS 26 G37+C49]	163
ACUAGAAAACCAGUGAUGUUGGCCUGGGAUACCAGCUUCUAUUAUAGCCCUUGGCAGCCCUUUAGUACAAGUGACCUUGCGACCG [theeternabot_sameState_KL_Theo_A_9]	452
UCUAAGGUCGAACCGGUAUGAUCACCGGAUACCAGAGGCGAAAGCCUCCCUUGGCAGCCGAGUGUAGUGAUGUUACACGGGUUCU	175
AUUGCACCUGCGGCCGCCACUCACUCCGGGCUGCUGGCCAGUGAUGUUGGUACGGCUGCCGGUUAGAGGACCGGGCAGGAGCUAA [Esage]	107

Same assay, conditions: Eterna round: R107; input ligand: theophylline 20 uM

Sequence	apparent KD of K4 kissing-loop reporter [nM]
GGAUAGGAUAGAGGAUAUGGACUAGGCAAGAAUAACUUGUCUAGUAAAUCCAUGAGGAGUGAUGUUCCAGAAGGCUGUCCUAUCG [MatMod 3 - Jieux - Exclusion - FMN B]	224
AAAUAAUAAAUGCAGCCAGUGAUGUUGGAAGGAGCGUGCGAAAGCACAGGUAGGUCGCCAACCAAAGCUGGAAACAGCAACUGCA [#SwitchBubble 3 #K4Early]	129
ACAGAUUGAUUGAUUCACUUUGUAGCUGCGAAGGAUAUUAAGACGCUAAGAAGGUCGCUUAAGGGUAGUGAUGUUACCUUUUGAG [theeternabot_sameState_KL_FMN_A_27]	56.6
UUGGAAAUCAGAAGGAGCGUCUAAAAUAAGAGAACCAGUGAUGUUGGUUUUAUUUAAUGAAGACAGGUAGGUCGCUGAAUUUUUA [Same State Arginie B GF 19]	96.1
CUCCAACUUGAUGAUACCAGAGAGGAGGAAGUGAUGUUGACUCCGGCUACAUACUGGCGACUCCCUUGGCAGCAUUACGUCAUCC [theeternabot_sameState_KL_Theo_B_3]	417
AGGCACGAGCAAGGAUAUUGAGUAGAGUGAUGUUCUGCCUAAGUUGGCUCGAAAGAGCCUUCUUAGCGAGAAGGUGCUCGUGCCU [#2 Same State - FMN A Attempt #26 (HarryS)]	812
CCUUCUCUUGAUAGUGAUGUUGUCAAGGGCAAGGAUAUCAUCUUAAUGAGAAGGUGUCCUUGAUAACAUGGAGGUCUGAAACAGA [Omei KL FMN A Exc C v7]	380
CGUUCUUCUGUCGAUACCAGCUUCAGUUGGCGGCCAGUGAUGUUGGUAUCGCCGAUGCCAAGCCCUUGGCAGCGACAUGAGACCC [Onrire]	130
AAAAUAAAUCAGUGAUGUUGGUAUCCGGAUACCAGCGAUAAUCAUCGCCCUUGGCAGCCGCGGACGUACAAAAUAAGUACGUCCU [MatMod 15 - Jieux - Same State - Theophylline A]	240
GACUGGUUAACGAGUGAUGUUCGAUGGGAAGGAGCGCGCAGAAGUGCAGGUAGGUCGCCCUAUAACCAGGAAAUGGCUGGAUUAU [3.)]	252
GGUUUAUAGGAGGAUACCAGUACGAAUAAAGUACAUUAAUAGUAGAGUGAUGUUCUAAAGUACCCUUGGCAGCUUAGAUUAAGUU [ExTheophylB.H]	166
AAAGUUGCAAGUGAUACCAGACGAGUGAAGGGAAGUAAUUAAUUAGGAGUGAUGUUCCGCGUCCCUUGGCAGCACUUUGUAAUUU [Exclusion Theophylline B GF 25]	184
UGAUACCAGACGGCCGCCACUAGGACCGGGAGUGAUGUUCCAAAAUUAAAAUACUCGGCCGCCACUAGGACCGGGUCUGGUAUCU [TrypBX 25 #DoubleAptamer #SwitchBubble]	205
AUUUAUUCGUACUACUAGUGAUGUUAGUAACGAGGACCGGUACGGCCGCCACUCGAUUUGGCGAUUUUGUAUUUUUUAUUCUAUA [JR_SSTryptoA_Sub011]	328
GCCGUACGCAUGGAUACCAGUCUUUCGCGACUGGACAUGGAGUGAUGUUUCGUGAUGCUAGACCCUUGGCAGCCAUGCGUACGGC	234
GAAUAAUAACAUGAGUGAUGUUCAUGUAAACGAGGACCGGUACGGCCGCCACUCGUUUCUCAUGUAAGCCGUACCAAUAACAAUA [KL-XTryp-A5 #analogue]	147

Sequence	apparent KD of K4 kissing-loop reporter [nM]
UUCAUCGUGGUUCACGGGUGGUAUGAAACGCGAGGACCGGUACGGCCGCCACUCGGUUCCGCUUGUUGAGUGAUGUUCAAUAUUU	323
AGGUCCGAGCCCGGAAGGGCUCGGACCUGUUAGGAUAUGACGUGAUUCAGAAGGGAUGGGUGGAGUGAUGUUCCACCCGAGAGGG [#2 Same State - FMN A Attempt #20 (HarryS)]	102
UUUAUUAAGACGGCCGCCACUGAAUUAGAGUGAUGUUCUAAAAUUACUAAAUUAAAUUUAUUCAACAGGACCGGGUCAAUUAUUA [JR_SSTryptoB_Sub010]	432
GGCAGUGAUGUUGCCUAAGCAACGCAUGCGGAGGAUAUUCGUUCGGGAAGAAGGCCGCAGCGUUCUCUCGCGAGUGAUGUUCGCA [Same State FMN A GF 22]	166
GGCCACGGGCGAGGAUAUGGGCAUGAUUCAUCCUGGAGUGAUGUUCCAGGUCCUACGUUUCUAGCACCAGAAGGCGUUUGUUGCU [Enistein]	180
AAACAUCACUGGGAGUGAUGUUCUCAGUGACGAGGACCGGUACGGCCGCCACUCGCGAGAGAUAUAAAUAAGUAAUGACAUCAUU [Excl Tryptophan A V1]	357
AUGUAUGAAUUAGGAUAUCGUGAGCUUUGCAUAUAUAUGAUAAAUGGAUAUGUCGUAGUGAUGUUACGAGAAGGAGUGUGGAGUA [KL-XFMN-B3]	65.8
GCCAGUGAUGUUGGCGAACCAACGCAUGCAGAGGAUAUUCGUUCUGGAAGAAGGCUGCAGCGUUAUCAAACGCAGUGAUGUUGCG [Same State FMN A GF 26]	165
AGCGUCUGAAGAGGAUAUGACCAGUGAUGUUGGUUACUACCUCAAAUUAGUGUCGCGCCAAAAUCGUCAGAAGGCUUCGGCGCGC [Ussoes]	96.7
UGGAUAUAGUGAUGUUAUAUAGAGAUGGAUACCAGCGAAGAGAAUUGCCCUUGGCAGCCGAAAGCAGUAUCAUUAGAGAAGAAUG [#19 K4 Theophylline A Exclusion]	251
GCAGACACGCAGUGAUGUUGCGAAACGGAAGGAGCGCGUGAAAACGCAGGUAGGUCGCCGACACAUUAAUUAUAAUUUUGUUUGC [Arginine A K4 15]	274
ACUACGAAGACGGCCGCCACUGAUAUUCGUAGAUCCAUCAUUGCAUGAGUGAUGUUCAUGUAUAUCAGGACCGGGUCAAGAUGGU [KL-XTryp-B18 #analogue]	282
CUGCCGUGCCAUGGGCCAGUGAUGUUGGAACGAGGACCGGUACGGCCGCCACUCGCUUAGCGUCAAAGGCGUCCCGAAUAGAAAG [theeternabot_exclusion_KL_Trp_A_14]	317
CGCAGUGAUGUUGCGAAUAUAAUAACGGAAGGAGCGCGUGAAAACGCAGGUAGGUCGCCGUUUGGUAUGAUGGAAACAUCGUACC [Arginine A K4 11]	106
UGCACGGGCUCGGCCGCCACUCCCGCGGGUCGAAAGGUCCGCUACUGAGUGAUGUUCGGUUGGAGGAGGACCGGGAGCCCGUGCA [#2 Exclusion - Tryptophan B Attempt #24 (HarryS)]	69.7
AAAUAGAUCAGUCAUCCAGUGAUGUUGGAAGGAGCGUGCGAAAGCACAGGUAGGUCGCCAAAAUAAAAGUGGCUGAUCAAAAUAA	594
